Data reported in PMC5681435 (2017).

B1: untagged p16INK4a [not stated] / GSTCDK4 [human] (parent complex)
chain 1: MEPAAGSSMEPSADWLATAAARGRVEEVRALLEAGALPNAPNSYGRRPIQVMMMGSARVAELLLLHGAEPNCADPATLTRPVHDAAREGFLDTLVVLHRAGARLDVRDAWGRLPVDLAEELGHRDVARYLRAAAGGTRGSNHARIDAAEGPSDIPD
chain 2: MATSRYEPVAEIGVGAYGTVYKARDPHSGHFVALKSVRVPNGGGGGGGLPISTVREVALLRRLEAFEHPNVVRLMDVCATSRTDREIKVTLVFEHVDQDLRTYLDKAPPPGLPAETIKDLMRQFLRGLDFLHANCIVHRDLKPENILVTSGGTVKLADFGLARIYSYQMALTPVVVTLWYRAPEVLLQSTYATPVDMWSVGCIFAEMFRRKPLFCGNSEADQLGKIFDLIGLPPEDDWPRDVSLPRGAFPPRGPRPVQSVVPEMEESGAQLLLEMLTFNPHKRISAFRALQHSYLHKDEGNPE

Variants of: B1
Assay: HTRF displacement assay; CDK4 8 nM; value read at the highest [INK] point, about 500 nM; read off a plot

Row | response [% Inhibition] | Variant
1 | ~58 | chain 1 D84N
